For 4 substances, percent of remaining reactivity compared to WT and Nt50 (µg/mL), FRµNT results are on record in patent US20140286983A1.

The target in test [1] is DENV-1 VLP mutant L107D (Dengue virus serotype 1 strain (56)BC94/95; C-terminal 20% Japanese encephalitis virus).
Test [2] deals with DENV-1 VLP mutant G106RL107D (Dengue virus serotype 1 strain (56)BC94/95; C-terminal 20% Japanese encephalitis virus).
The target of test [3] is DENV-1 VLP mutant P364Q (Dengue virus serotype 1 strain (56)BC94/95; C-terminal 20% Japanese encephalitis virus).
The target of test [4] is DENV-1 VLP mutant K310D (Dengue virus serotype 1 strain (56)BC94/95; C-terminal 20% Japanese encephalitis virus).
For test [5], the target named is DENV-1 VLP mutant G106RL107DK310DE311KP364Q (pVD1-CRR VLP antigen) (Dengue virus serotype 1 strain (56)BC94/95; C-terminal 20% Japanese encephalitis virus).
Test [6] deals with DENV-1 VLP mutant G106R (Dengue virus serotype 1 strain (56)BC94/95; C-terminal 20% Japanese encephalitis virus).
For test [7], the target named is DENV-1 VLP mutant K310DE311KP364Q (Dengue virus serotype 1 strain (56)BC94/95; C-terminal 20% Japanese encephalitis virus).
Test [8] deals with DENV-1 VLP mutant E311K (Dengue virus serotype 1 strain (56)BC94/95; C-terminal 20% Japanese encephalitis virus).
In test [9] the target is DENV-2 virus (strain 16681) (Dengue virus serotype 2 strain 16681) (UniProt P29990). As to the kind of experiment: cell-based or functional assay.
Test [10] has as its target DENV-3 virus (strain 116RC1396) (Dengue virus serotype 3 strain 116RC1396). As to the kind of experiment: cell-based or functional assay.
The target in test [11] is DENV-4 virus (strain 130) (Dengue virus serotype 4 strain 130). Nature of the test: cell-based or functional assay.
The target of test [12] is DENV-1 virus (strain 56BC94/95) (Dengue virus serotype 1 strain 56BC94/95). Nature of the test: cell-based or functional assay.

Regarding MAb 1A1D-2 (antibody), the percent of remaining reactivity compared to WT was 100% in test [1]; 100% in test [2]; 100% in test [3]; 1.5% in [4]; below 0.1% in [5]; 25% in test [6]. Moreover, the percent of remaining reactivity compared to WT in test [7] was below 0.8%; in test [8] it was 50%. For the same substance, the Nt50 (µg/mL), FRµNT in [9] was 0.46 µg/mL; in [10] it was 1.26 µg/mL; in test [11] it was above 20 µg/mL; in [12], 1.68 µg/mL.
With MAb 3H5 (antibody), the Nt50 (µg/mL), FRµNT in [9] was 0.15 µg/mL; in test [12], above 20 µg/mL.
In the case of MAb 4G2 (antibody), the percent of remaining reactivity compared to WT in test [1], in [2], in test [3], in test [4], in test [5] and in test [6] was below 0.1% throughout. For the same substance, the percent of remaining reactivity compared to WT in test [7] and in test [8] was 100% in each case.
With MAb 6B6C-1 (antibody), the percent of remaining reactivity compared to WT in [1] was 50%; in test [2] it was 0.8%; in test [3], 100%; in [4], 100%; in test [5] it was 3%; in [6] it was 12.5%. In addition, the results for the percent of remaining reactivity compared to WT in test [7] and in test [8] were 50% and 100%, respectively.
